Measured values taken from patent US20080138330.

Biological target: RTEF-1 (TEAD4) (Homo sapiens) (UniProt Q15561)
Assay: cell_activity

Chain of RTEF-1 (TEAD4) (Homo sapiens) (Q15561 other isoform, or with tags, fused parts or gaps): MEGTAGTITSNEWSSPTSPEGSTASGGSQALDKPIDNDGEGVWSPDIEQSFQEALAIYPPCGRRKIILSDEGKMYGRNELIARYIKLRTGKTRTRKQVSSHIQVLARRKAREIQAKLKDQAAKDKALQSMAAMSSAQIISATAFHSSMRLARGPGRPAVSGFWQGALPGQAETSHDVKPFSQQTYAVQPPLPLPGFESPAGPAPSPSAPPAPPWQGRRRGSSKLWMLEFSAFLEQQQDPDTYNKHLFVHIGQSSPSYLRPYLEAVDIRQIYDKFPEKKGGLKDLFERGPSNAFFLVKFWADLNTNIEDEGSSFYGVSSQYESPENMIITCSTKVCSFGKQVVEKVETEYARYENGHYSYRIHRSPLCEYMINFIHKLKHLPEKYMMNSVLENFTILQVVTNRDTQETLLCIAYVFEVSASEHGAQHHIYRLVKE

Substance	activity (luciferase in BAEC) [fold]	activity (luciferase, +/-0.3, 2.7 +/-0.2 fold in hypoxia) [fold]
FGFR1 0.15 kb promoter (-48/+94)	> 3	–
VEGF 0.35 promoter (-194/+157)	–	2.2
